Experimental data published in patent US20140087995A1 (published 2014).
Numbered stars: 1 amine (or outer) side, 2 acyl side, 3 side chain; on linkers, the order of the positions; unused ones are H or OH. Bridge positions count the residues as written; N and C are the ends. Side chains are listed from the residue outwards. Ends that are not written are not given here. * marks the point of attachment. C20 diacid = O=C(O)CCCCCCCCCCCCCCCCCCC(=O)*; γGlu = O=C(O)[C@H](CCC(=O)[*:2])N[*:1]

T1: human amylin 3(a) receptor (human calcitonin receptor co-expressed with RAMP-3) (human, UniProt P30988 25-474; O60896 24-148, limits assumed)
T1 sequence (looked up) 1: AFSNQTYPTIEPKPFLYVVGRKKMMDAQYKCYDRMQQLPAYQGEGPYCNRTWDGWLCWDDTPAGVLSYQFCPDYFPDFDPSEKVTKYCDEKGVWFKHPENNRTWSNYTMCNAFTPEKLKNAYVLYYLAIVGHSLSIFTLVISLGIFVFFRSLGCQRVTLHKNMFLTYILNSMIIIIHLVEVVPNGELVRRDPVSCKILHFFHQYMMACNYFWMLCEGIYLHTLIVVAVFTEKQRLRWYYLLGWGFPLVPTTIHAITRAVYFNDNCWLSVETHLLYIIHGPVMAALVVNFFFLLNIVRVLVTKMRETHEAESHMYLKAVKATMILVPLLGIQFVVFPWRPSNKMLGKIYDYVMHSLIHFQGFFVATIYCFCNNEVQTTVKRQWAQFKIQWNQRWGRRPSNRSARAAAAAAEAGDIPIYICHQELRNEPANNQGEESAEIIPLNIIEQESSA
T1 sequence (looked up) 2: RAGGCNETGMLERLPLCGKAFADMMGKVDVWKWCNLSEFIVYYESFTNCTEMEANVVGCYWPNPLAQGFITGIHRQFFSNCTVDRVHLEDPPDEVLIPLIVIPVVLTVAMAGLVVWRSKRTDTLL

T2: human calcitonin receptor (human, UniProt P30988 25-474)
T2 sequence (looked up): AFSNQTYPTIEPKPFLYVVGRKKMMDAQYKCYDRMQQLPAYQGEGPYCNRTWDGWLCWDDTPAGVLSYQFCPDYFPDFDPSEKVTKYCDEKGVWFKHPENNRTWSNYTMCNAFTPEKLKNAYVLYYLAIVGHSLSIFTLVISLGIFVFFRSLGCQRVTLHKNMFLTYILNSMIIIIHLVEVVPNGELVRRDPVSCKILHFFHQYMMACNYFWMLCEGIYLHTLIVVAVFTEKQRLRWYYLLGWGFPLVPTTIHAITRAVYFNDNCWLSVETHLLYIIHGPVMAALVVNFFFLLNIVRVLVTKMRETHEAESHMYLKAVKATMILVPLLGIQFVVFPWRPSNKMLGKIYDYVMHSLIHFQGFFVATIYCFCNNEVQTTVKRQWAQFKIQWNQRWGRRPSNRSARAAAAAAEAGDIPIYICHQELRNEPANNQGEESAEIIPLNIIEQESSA


Assays:
[1] = target: T1, human amylin 3(a) receptor (human …); assay: cell-based or functional assay
[2] = target: T2, human calcitonin receptor; assay: cell-based or functional assay
[3] = target: T1, human amylin 3(a) receptor (human …); assay: SPA competition binding, membranes of Amylin 3(a)/CRE-luc BHK cells, displacement of 125I-rat amylin (Assay (V))
Procedure: The binding assay was performed using scintillation proximity assay (SPA) beads (RPNQ0001) from PerkinElmer and cell membranes from the Amylin 3(a)/CRE-luc cells (as described in Assay (II)) were used. Membranes were prepared in the following way; the cells were rinsed with PBS and incubated with Versene for approximately 5 min before harvesting. The cells were flushed with PBS and the cell-suspension was centrifuged for 5 min at 1000 rpm. Cells were homogenized (ultrathurrax) in a buffer containing 20 mM Na-HEPES and 10 mM EDTA (pH 7.4) and centrifuged at 20.000 rpm for 15 min. The resulting pellet was resuspended, homogenized and centrifuged (20.000 rpm, 15 min) in a buffer containing 20 mM Na-HEPES and 0.1 mM EDTA (pH 7.4, buffer 2). The resulting pellet was resuspended in buffer 2 and protein concentration was measured (BCA protein Assay, Pierce). The homogenate was kept cold during the whole procedure. The membranes were kept at −80° C. until use. The assay was performed in a 384 well Optiplate (PerkinElmer) in a total volume of 40 ul. Membranes were mixed with SPA beads. Final concentration of membranes 35 ng/μL final and SPA beads was 0.05 mg/well. Test-compounds were dissolved in DMSO and further diluted in assay buffer (50 mM Hepes, pH 7.4, 1 mM CaCl2, 5 mM MgCl₂, 0.1% OA and 0.02% Tween20). […] The final mixture was incubated with shaking at 400 rpm for 120 min at 25° C. prior to centrifugation (1500 rpm, 10 min). Samples were analyzed on TopCounter™ (Packard). The IC₅₀ was calculated using (one site binding competition analysis) GraphPad Prism5 as a measure of receptor affinity.

| Binder | hAmylin-R funct. EC50 [1] | Ratio hCT/hAmylin funct. [2] | hCTR funct. EC50 [2] | IC50 [3] |
| --- | --- | --- | --- | --- |
| K([γGlu-C20 diacid])CNTATCATQRLAEFLRHSSPNFGAIPSSTNVGHETY-NH2 (disulfide 2-7; N-terminus assumed; SMILES CC[C@H](C)[C@H](NC(=O)[C@H](C)NC(=O)CNC(=O)[C@H](Cc1ccccc1)NC(=O)[C@H](CC(N)=O)NC(=O)[C@@H]1CCCN1C(=O)[C@H](CO)NC(=O)[C@H](CO)NC(=O)[C@H](Cc1c[nH]cn1)NC(=O)[C@H](CCCNC(=N)N)NC(=O)[C@H](CC(C)C)NC(=O)[C@H](Cc1ccccc1)NC(=O)[C@H](CCC(=O)O)NC(=O)[C@H](C)NC(=O)[C@H](CC(C)C)NC(=O)[C@H](CCCNC(=N)N)NC(=O)[C@H](CCC(N)=O)NC(=O)[C@@H](NC(=O)[C@H](C)NC(=O)[C@@H]1CSSC[C@H](NC(=O)[C@@H](N)CCCCNC(=O)CC[C@H](NC(=O)CCCCCCCCCCCCCCCCCCC(=O)O)C(=O)O)C(=O)N[C@@H](CC(N)=O)C(=O)N[C@@H]([C@@H](C)O)C(=O)N[C@@H](C)C(=O)N[C@@H]([C@@H](C)O)C(=O)N1)[C@@H](C)O)C(=O)N1CCC[C@H]1C(=O)N[C@@H](CO)C(=O)N[C@@H](CO)C(=O)N[C@H](C(=O)N[C@@H](CC(N)=O)C(=O)N[C@H](C(=O)NCC(=O)N[C@@H](Cc1c[nH]cn1)C(=O)N[C@@H](CCC(=O)O)C(=O)N[C@H](C(=O)N[C@@H](Cc1ccc(O)cc1)C(N)=O)[C@@H](C)O)C(C)C)[C@@H](C)O, also called compound 107) | 0.405 nM | 6.3 | 2.54 nM | 0.387 nM |
| K([γGlu-C20 diacid])CNTATCATQRLAHFLRHSSPNFGAIPSSTNVGPNTP-NH2 (disulfide 2-7; N-terminus assumed; SMILES CC[C@H](C)[C@H](NC(=O)[C@H](C)NC(=O)CNC(=O)[C@H](Cc1ccccc1)NC(=O)[C@H](CC(N)=O)NC(=O)[C@@H]1CCCN1C(=O)[C@H](CO)NC(=O)[C@H](CO)NC(=O)[C@H](Cc1c[nH]cn1)NC(=O)[C@H](CCCNC(=N)N)NC(=O)[C@H](CC(C)C)NC(=O)[C@H](Cc1ccccc1)NC(=O)[C@H](Cc1c[nH]cn1)NC(=O)[C@H](C)NC(=O)[C@H](CC(C)C)NC(=O)[C@H](CCCNC(=N)N)NC(=O)[C@H](CCC(N)=O)NC(=O)[C@@H](NC(=O)[C@H](C)NC(=O)[C@@H]1CSSC[C@H](NC(=O)[C@@H](N)CCCCNC(=O)CC[C@H](NC(=O)CCCCCCCCCCCCCCCCCCC(=O)O)C(=O)O)C(=O)N[C@@H](CC(N)=O)C(=O)N[C@@H]([C@@H](C)O)C(=O)N[C@@H](C)C(=O)N[C@@H]([C@@H](C)O)C(=O)N1)[C@@H](C)O)C(=O)N1CCC[C@H]1C(=O)N[C@@H](CO)C(=O)N[C@@H](CO)C(=O)N[C@H](C(=O)N[C@@H](CC(N)=O)C(=O)N[C@H](C(=O)NCC(=O)N1CCC[C@H]1C(=O)N[C@@H](CC(N)=O)C(=O)N[C@H](C(=O)N1CCC[C@H]1C(N)=O)[C@@H](C)O)C(C)C)[C@@H](C)O) | 0.052 nM | 0.8 | 0.04 nM | 0.131 nM |
| K([γGlu-C20 diacid])CNTATCATQRLAEFLRHSSPNFGAIPSSTNVGPNTP-NH2 (disulfide 2-7; N-terminus assumed; SMILES CC[C@H](C)[C@H](NC(=O)[C@H](C)NC(=O)CNC(=O)[C@H](Cc1ccccc1)NC(=O)[C@H](CC(N)=O)NC(=O)[C@@H]1CCCN1C(=O)[C@H](CO)NC(=O)[C@H](CO)NC(=O)[C@H](Cc1c[nH]cn1)NC(=O)[C@H](CCCNC(=N)N)NC(=O)[C@H](CC(C)C)NC(=O)[C@H](Cc1ccccc1)NC(=O)[C@H](CCC(=O)O)NC(=O)[C@H](C)NC(=O)[C@H](CC(C)C)NC(=O)[C@H](CCCNC(=N)N)NC(=O)[C@H](CCC(N)=O)NC(=O)[C@@H](NC(=O)[C@H](C)NC(=O)[C@@H]1CSSC[C@H](NC(=O)[C@@H](N)CCCCNC(=O)CC[C@H](NC(=O)CCCCCCCCCCCCCCCCCCC(=O)O)C(=O)O)C(=O)N[C@@H](CC(N)=O)C(=O)N[C@@H]([C@@H](C)O)C(=O)N[C@@H](C)C(=O)N[C@@H]([C@@H](C)O)C(=O)N1)[C@@H](C)O)C(=O)N1CCC[C@H]1C(=O)N[C@@H](CO)C(=O)N[C@@H](CO)C(=O)N[C@H](C(=O)N[C@@H](CC(N)=O)C(=O)N[C@H](C(=O)NCC(=O)N1CCC[C@H]1C(=O)N[C@@H](CC(N)=O)C(=O)N[C@H](C(=O)N1CCC[C@H]1C(N)=O)[C@@H](C)O)C(C)C)[C@@H](C)O) | 0.105 nM | 0.9 | 0.09 nM | 0.214 nM |
| K([γGlu-γGlu-C20 diacid])CNTATCATQRLAEFLRHSSPNFGAIPSSTNVGRETY-NH2 (disulfide 2-7; N-terminus assumed; SMILES CC[C@H](C)[C@H](NC(=O)[C@H](C)NC(=O)CNC(=O)[C@H](Cc1ccccc1)NC(=O)[C@H](CC(N)=O)NC(=O)[C@@H]1CCCN1C(=O)[C@H](CO)NC(=O)[C@H](CO)NC(=O)[C@H](Cc1c[nH]cn1)NC(=O)[C@H](CCCNC(=N)N)NC(=O)[C@H](CC(C)C)NC(=O)[C@H](Cc1ccccc1)NC(=O)[C@H](CCC(=O)O)NC(=O)[C@H](C)NC(=O)[C@H](CC(C)C)NC(=O)[C@H](CCCNC(=N)N)NC(=O)[C@H](CCC(N)=O)NC(=O)[C@@H](NC(=O)[C@H](C)NC(=O)[C@@H]1CSSC[C@H](NC(=O)[C@@H](N)CCCCNC(=O)CC[C@H](NC(=O)CC[C@H](NC(=O)CCCCCCCCCCCCCCCCCCC(=O)O)C(=O)O)C(=O)O)C(=O)N[C@@H](CC(N)=O)C(=O)N[C@@H]([C@@H](C)O)C(=O)N[C@@H](C)C(=O)N[C@@H]([C@@H](C)O)C(=O)N1)[C@@H](C)O)C(=O)N1CCC[C@H]1C(=O)N[C@@H](CO)C(=O)N[C@@H](CO)C(=O)N[C@H](C(=O)N[C@@H](CC(N)=O)C(=O)N[C@H](C(=O)NCC(=O)N[C@@H](CCCNC(=N)N)C(=O)N[C@@H](CCC(=O)O)C(=O)N[C@H](C(=O)N[C@@H](Cc1ccc(O)cc1)C(N)=O)[C@@H](C)O)C(C)C)[C@@H](C)O) | 0.703 nM | 10.6 | 7.43 nM | 0.957 nM |
| K([γGlu-γGlu-C20 diacid])CNTATCATQRLAEFLRHSSPNFGAIPSSTNVGPETY-NH2 (disulfide 2-7; N-terminus assumed; SMILES CC[C@H](C)[C@H](NC(=O)[C@H](C)NC(=O)CNC(=O)[C@H](Cc1ccccc1)NC(=O)[C@H](CC(N)=O)NC(=O)[C@@H]1CCCN1C(=O)[C@H](CO)NC(=O)[C@H](CO)NC(=O)[C@H](Cc1c[nH]cn1)NC(=O)[C@H](CCCNC(=N)N)NC(=O)[C@H](CC(C)C)NC(=O)[C@H](Cc1ccccc1)NC(=O)[C@H](CCC(=O)O)NC(=O)[C@H](C)NC(=O)[C@H](CC(C)C)NC(=O)[C@H](CCCNC(=N)N)NC(=O)[C@H](CCC(N)=O)NC(=O)[C@@H](NC(=O)[C@H](C)NC(=O)[C@@H]1CSSC[C@H](NC(=O)[C@@H](N)CCCCNC(=O)CC[C@H](NC(=O)CC[C@H](NC(=O)CCCCCCCCCCCCCCCCCCC(=O)O)C(=O)O)C(=O)O)C(=O)N[C@@H](CC(N)=O)C(=O)N[C@@H]([C@@H](C)O)C(=O)N[C@@H](C)C(=O)N[C@@H]([C@@H](C)O)C(=O)N1)[C@@H](C)O)C(=O)N1CCC[C@H]1C(=O)N[C@@H](CO)C(=O)N[C@@H](CO)C(=O)N[C@H](C(=O)N[C@@H](CC(N)=O)C(=O)N[C@H](C(=O)NCC(=O)N1CCC[C@H]1C(=O)N[C@@H](CCC(=O)O)C(=O)N[C@H](C(=O)N[C@@H](Cc1ccc(O)cc1)C(N)=O)[C@@H](C)O)C(C)C)[C@@H](C)O) | 0.225 nM | 10.5 | 2.36 nM | 0.121 nM |
